Data on 1 molecule can be found in US6919309B2, “Methods and compositions for inhibiting angiogenesis” (Northwestern University, priority 1997, dated 2005).

One experiment concerns avascular rat cornea. Description: Rat cornea neovascularization assay (implanted pellets). The format is in vivo. How it is done:
FIG. 13, comprising FIGS. 13A and 13B, is a table and a series of images of photomicrographs depicting inhibition of neovascularization by purified PEDF and by PEDF present naturally in normal human vitreous and cornea. FIG. 13A: Recombinant (rPEDF) or purified (pPEDF) PEDF (8 nM), PEDF peptide 327 to 343 (299 μg/ml), undiluted vitreous fluid, or corneal extract (used at 200 μg of protein per milliliter) was incorporated with vehicle (PBS) and the indicated additions into Hydron pellets that were implanted into the avascular rat cornea. Vigorous ingrowth of vessels from the limbus toward the pellet by 7 days was scored as a positive response (Polverini, et al, 1991, Methods Enzymol 198:440). Where noted, anti-PEDF linked to protein A beads was used to remove PEDF from vitreous fluid and corneal extract. FIG. 13B, comprising FIGS. 13B-1 through 13B-8: Representative photos of corneal responses from FIG. 13A shown at X13 magnification. PEDF antipeptide antibody (anti-PEDF) was raised in rabbits against a peptide containing pEDF amino acids 327-343, conjugated to Keyhole-limpet hemocyanin, and affinity-purified on a peptide column. Polyclonal antisera against bacterial recombinant PEDF/EPC-1 (anti-EPC-1) is described in DePaolo, et al. (1995, Exp. Cell Res. 220:178) and the antiangiogenic protein angiostatin is descried in O'Reilly, et al. ([…], Cell 79:315). Purchased reagents included neutralizing anti-VEGF (Genzyme Cambridge, Mass.), pan antibodies to TGFβ, and all angiogenic inducers (R&D Systems, Minneapolis, Minn.) except lysophosphatidic acid (Sigma). All proteins and antibodies were extensively dialyzed against PBS before use in biological assays. FIG. 13B-1 corresponds to sample 2 of FIG. 13A; FIG. 13B-2 corresponds to sample 12 of FIG. 13A, FIG. 13B-3 corresponds to sample 3 of FIG. 13A; FIG. 13B-4 corresponds to sample 11 of FIG. 13A; FIG. 13B-5 corresponds to sample 8 of FIG. 13A; FIG. 13B-6 corresponds to sample 16 of FIG. 13A; FIG. 13B-7 corresponds to sample 6 of FIG. 13A; FIG. 13B-8 corresponds to sample 17 of FIG. 13A. […]

The test system of experiment [1] is endothelial cells isolated from human umbilical chords. Description: Endothelial cell migration assay, endothelial cells from human umbilical chords. The format is cell-based. The conditions noted are these: 10 ng/ml bFGF plus PEDF; FIG. 1. How it is done: The migration of different vascular endothelial cell types was determined by adding PEDF to cultured endothelial cells, specifically, endothelial cells isolated from bovine adrenal capillaries, human umbilical chords, and human dermal microvascular tissue.
The cells were plated on gelatinized Nucleopore membranes (5 μm pores for bovine capillary cells and 8 μm pores for other cells) in an inverted modified Boyden chamber. After two hours, the chamber was reinverted and test substances added to the top wells of each. Specifically, populations were exposed to either culture medium alone (control), 10 ng/ml bFGF, 2 nM PEDF (full length PEDF), or both 10 ng/ml bFGF (basic fibroblast growth factor) and 10 nM PEDF. The cells were then permitted to migrate for 3-4 hours. Following this, the membranes were fixed and stained, and the number of cells that had migrated were counted.

Experiment [2] has as its system WI-38 fibroblasts, human foreskin fibroblasts, vascular smooth muscle cells, human neutrophils. Description: Migration assay with non-endothelial cells. The format is cell-based. The settings on record: PEDF 0.01 nM to about 50 nM; inducers IL-8 or PDGF; FIGS. 2A-2D. On the procedure: The ability of PEDF to prevent migration of fibroblasts or smooth muscle was tested using cells obtained from human diploid fibroblast cell line WI-38, human foreskin fibroblasts, vascular smooth muscle, and normal human neutrophils.
The assay was performed as indicated in Example 1, except that the dose of PEDF varied from 0.01 nM to about 50 nM and that the migration assay was performed without inverting the chambers. Moreover, the inducer of migration varied with the cell type (IL-8 was used at 1 μg/ml and PDGF was used at 250 pg/ml).

The test system of experiment [3] is skin of athymic (nude/nude) mice. Description: Hair follicle density in skin of athymic nude mice after PEDF injection. The format is in vivo, mouse. The settings on record: 2 μg purified PEDF daily for four days into tumors; FIG. 8. How it is done:
FIG. 8, comprising FIGS. 8A, 8B and 8C, is a series of images of photomicrographs of sections of skin obtained from animals treated with PEDF, wherein hair follicles are depicted. Human neuroblastoma tumors growing subcutaneously in nude mice were injected at 2-3 sites/tumor for four consecutive days with 2 μg of purified PEDF. On the fifth day, hair was noticed growing over the treated tumors. […] Similar increases in hair follicle density have been seen in the absence of tumors following injection of purified PEDF.
The treatment consisted of injecting a total of 2 μg of purified histidine-tagged PEDF in a volume of 100 μl of phosphate buffered saline into 2-3 sites/tumor each day for 4 consecutive days. On the fifth day, a small area of increased hair growth was noticed over the injection sites. The mice were euthanized using an overdose of metaphane, and the tumors were surgically removed. Tumor tissue was sliced and placed in buffered formalin for at least 24 hours. Tissue was embedded in paraffin and prepared for histologic examination. The skin overlying neuroblastoma tumors treated with PEDF had increased hair follicle density when compared with the skin overlying tumors injected with saline vehicle (FIG. 8). Similar increases in hair follicle density have been seen in the absence of tumors following injection of purified PEDF.

The test system of another experiment is SK-N-BE(2) tumors. Description: Differentiation of human neuroblastoma tumors in athymic mice (neurofilament staining). It is filed as in vivo, mouse. The conditions noted are these: 2 μg PEDF per day intratumoral, 4 days. On the procedure: In vivo experiments were conducted to determine the effect of PEDF on neuroblastoma tumors. […] When the tumors grew to a palpable size (approximately 8 mm in diameter) PEDF treatment was started. A total of 2 μg of purified histidine-tagged PEDF in a volume of 100 μl of phosphate buffered saline was injected into 2-3 sites/tumor each day for 4 consecutive days. On the fifth day, the mice were euthanized by an overdose of metaphane, and the tumors were surgically removed. Tumor tissue was sliced and placed in buffered formalin for at least 24 hours. Tissue was embedded in paraffin and prepared for histologic examination. Sections were stained with an antibody that recognized neurofilament protein (Dako, Carpinteria, Calif.). […] A total of six SK-N-BE(2) tumors were treated with PEDF and 6/6 were moderately to strongly positive for neurofilament staining.

The mark [4] stands for this setting: PEDF 8 nM in pellet, seven days.

B1: PEDF: full length pigment epithelium derived growth factor, SEQ ID NO:1; purified from WERI-Rb-27R medium or recombinant histidine-tagged (protein, listed as Homo Sapiens)
chain: MQALVLLLCIGALLGHSSCQNPASPPEEGSPDPDSTGALVEEEDPFFKVPVNKLAAAVSNFGYDLYRVRSSMSPTTNVLLSPLSVATALSALSLGADERTESIIHRALYYDLISSPDIHGTYKELLDTVTAPQKNLKSASRIVFEKKLRIKSSFVAPLEKSYGTRPRVLTGNPRLDLQEINNWVQAQMKGKLARSTKEIPDEISILLLGVAHFKGQWVTKFDSRKTSLEDFYLDEERTVRVPMMSDPKAVLRYGLDSDLSCKIAQLPLTGSMSIIFFLPLKVTQNLTLIEESLTSEFIHDIDRELKTVQAVLTVPKLKLSYEGEVTKSLQEMKLQSLFDSPDFSKITGKPIKLTQVEHRAGFEWNEDGAGTTPSPGLQPAHLTFPLDYHLNQPFIFVLRDTDTGALLFIGKILDPRGP
For the molecule B1, the “effect on neovascularization in the rat cornea” value in the experiment with avascular rat cornea (Hydron pellets, 7 days, FIGS. 13A and 13B) is “potently inhibited neovascularization”. Further, in the experiment with avascular rat cornea (setting [4]), the “number of corneas with angiogenesis/number of corneas implanted, With bFGF” value is on record as 0/3 and the “number of corneas with angiogenesis/number of corneas implanted, Without bFGF” value is on record as 0/3. In addition, the “migration, percentage of maximal migration” value in experiment [1] is given as “considerably less migration was observed”. The “inhibition of migration of non-endothelial cells” value in experiment [2] is recorded as “did not inhibit the migration”. The “density of hair follicles compared with vehicle-treated skin” value in experiment [3] is recorded as “three-fold increased density of hair follicles”. In the experiment on SK-N-BE(2) tumors, the “tumors moderately to strongly positive for neurofilament staining / tumors treated” value is 6/6.
